For four molecules, response (% of input bound) results are on record in article PMC8294582.

B1: truncated form of human WT SETD2, FLAG-tagged (tSETD2-FLAG, aa1418–2564), Q9BYW2 H2514A (protein)
chain: DGELQDRKKVRVEVEQGETSVPPGSALVGPSCVMDDFRDPQRWKECAKQGKMPCYFDLIEENVYLTERKKNKSHRDIKRMQCECTPLSKDERAQGEIACGEDCLNRLLMIECSSRCPNGDYCSNRRFQRKQHADVEVILTEKKGWGLRAAKDLPSNTFVLEYCGEVLDHKEFKARVKEYARNKNIHYYFMALKNDEIIDATQKGNCSRFMNHSCEPNCETQKWTVNGQLRVGFFTTKLVPSGSELTFDYQFQRYGKEAQKCFCGSANCRGYLGGENRVSIRAAGGKMKKERSRKKDSVDGELEALMENGEGLSDKNQVLSLSRLMVRIETLEQKLTCLELIQNTHSQSCLKSFLERHGLSLLWIWMAELGDGRESNQKLQEEIIKTLEHLPIPTKNMLEESKVLPIIQRWSQTKTAVPPLSEGDGYSSENTSRAHTPLNTPDPSTKLSTEADTDTPKKLMFRRLKIISENSMDSAISDATSELEGKDGKEDLDQLENVPVEEEEELQSQQLLPQQLPECKVDSETNIEASKLPTSEPEADAEIEPKESNGTKLEEPINEETPSQDEEEGVSDVESERSQEQPDKTVDISDLATKLLDSWKDLKEVYRIPKKSQTEKENTTTERGRDAVGFRDQTPAPKTPNRSRERDPDKQTQNKEKRKRRSSLSPPSSAYERGTKRPDDRYDTPTSKKKVRIKDRNKLSTEERRKLFEQEVAQREAQKQQQQMQNLGMTSPLPYDSLGYNAPHHPFAGYPPGYPMQAYVDPSNPNAGKVLLPTPSMDPVCSPAPYDHAQPLVGHSTEPLSAPPPVPVVPHVAAPVEVSSSQYVAQSDGVVHQDSSVAVLPVPAPGPVQGQNYSVWDSNQQSVSVQQQYSPAQSQATIYYQGQTCPTVYGVTSPYSQTTPPIVQSYAQPSLQYIQGQQIFTAHPQGVVVQPAAAVTTIVAPGQPQPLQPSEMVVTNNLLDLPPPSPPKPKTIVLPPNWKTARDPEGKIYYYHVITRQTQWDPPTWESPGDDASLEHEAEMDLGTPTYDENPMKASKKPKTAEADTSSELAKKSKEVFRKEMSQFIVQCLNPYRKPDCKVGRITTTEDFKHLARKLTAGVMNKELKYCKNPEDLECNENVKHKTKEYIKKYMQKFGAVYKPKEDTELE
B2: truncated form of human WT SETD2, FLAG-tagged (tSETD2-FLAG, aa1418–2564), Q9BYW2 V2483A (protein)
chain: DGELQDRKKVRVEVEQGETSVPPGSALVGPSCVMDDFRDPQRWKECAKQGKMPCYFDLIEENVYLTERKKNKSHRDIKRMQCECTPLSKDERAQGEIACGEDCLNRLLMIECSSRCPNGDYCSNRRFQRKQHADVEVILTEKKGWGLRAAKDLPSNTFVLEYCGEVLDHKEFKARVKEYARNKNIHYYFMALKNDEIIDATQKGNCSRFMNHSCEPNCETQKWTVNGQLRVGFFTTKLVPSGSELTFDYQFQRYGKEAQKCFCGSANCRGYLGGENRVSIRAAGGKMKKERSRKKDSVDGELEALMENGEGLSDKNQVLSLSRLMVRIETLEQKLTCLELIQNTHSQSCLKSFLERHGLSLLWIWMAELGDGRESNQKLQEEIIKTLEHLPIPTKNMLEESKVLPIIQRWSQTKTAVPPLSEGDGYSSENTSRAHTPLNTPDPSTKLSTEADTDTPKKLMFRRLKIISENSMDSAISDATSELEGKDGKEDLDQLENVPVEEEEELQSQQLLPQQLPECKVDSETNIEASKLPTSEPEADAEIEPKESNGTKLEEPINEETPSQDEEEGVSDVESERSQEQPDKTVDISDLATKLLDSWKDLKEVYRIPKKSQTEKENTTTERGRDAVGFRDQTPAPKTPNRSRERDPDKQTQNKEKRKRRSSLSPPSSAYERGTKRPDDRYDTPTSKKKVRIKDRNKLSTEERRKLFEQEVAQREAQKQQQQMQNLGMTSPLPYDSLGYNAPHHPFAGYPPGYPMQAYVDPSNPNAGKVLLPTPSMDPVCSPAPYDHAQPLVGHSTEPLSAPPPVPVVPHVAAPVEVSSSQYVAQSDGVVHQDSSVAVLPVPAPGPVQGQNYSVWDSNQQSVSVQQQYSPAQSQATIYYQGQTCPTVYGVTSPYSQTTPPIVQSYAQPSLQYIQGQQIFTAHPQGVVVQPAAAVTTIVAPGQPQPLQPSEMVVTNNLLDLPPPSPPKPKTIVLPPNWKTARDPEGKIYYYHVITRQTQWDPPTWESPGDDASLEHEAEMDLGTPTYDENPMKASKKPKTAEADTSSELAKKSKEVFRKEMSQFIAQCLNPYRKPDCKVGRITTTEDFKHLARKLTHGVMNKELKYCKNPEDLECNENVKHKTKEYIKKYMQKFGAVYKPKEDTELE
B3: truncated form of human WT SETD2, FLAG-tagged (tSETD2-FLAG, aa1418–2564), Q9BYW2 R2510H (protein)
chain: DGELQDRKKVRVEVEQGETSVPPGSALVGPSCVMDDFRDPQRWKECAKQGKMPCYFDLIEENVYLTERKKNKSHRDIKRMQCECTPLSKDERAQGEIACGEDCLNRLLMIECSSRCPNGDYCSNRRFQRKQHADVEVILTEKKGWGLRAAKDLPSNTFVLEYCGEVLDHKEFKARVKEYARNKNIHYYFMALKNDEIIDATQKGNCSRFMNHSCEPNCETQKWTVNGQLRVGFFTTKLVPSGSELTFDYQFQRYGKEAQKCFCGSANCRGYLGGENRVSIRAAGGKMKKERSRKKDSVDGELEALMENGEGLSDKNQVLSLSRLMVRIETLEQKLTCLELIQNTHSQSCLKSFLERHGLSLLWIWMAELGDGRESNQKLQEEIIKTLEHLPIPTKNMLEESKVLPIIQRWSQTKTAVPPLSEGDGYSSENTSRAHTPLNTPDPSTKLSTEADTDTPKKLMFRRLKIISENSMDSAISDATSELEGKDGKEDLDQLENVPVEEEEELQSQQLLPQQLPECKVDSETNIEASKLPTSEPEADAEIEPKESNGTKLEEPINEETPSQDEEEGVSDVESERSQEQPDKTVDISDLATKLLDSWKDLKEVYRIPKKSQTEKENTTTERGRDAVGFRDQTPAPKTPNRSRERDPDKQTQNKEKRKRRSSLSPPSSAYERGTKRPDDRYDTPTSKKKVRIKDRNKLSTEERRKLFEQEVAQREAQKQQQQMQNLGMTSPLPYDSLGYNAPHHPFAGYPPGYPMQAYVDPSNPNAGKVLLPTPSMDPVCSPAPYDHAQPLVGHSTEPLSAPPPVPVVPHVAAPVEVSSSQYVAQSDGVVHQDSSVAVLPVPAPGPVQGQNYSVWDSNQQSVSVQQQYSPAQSQATIYYQGQTCPTVYGVTSPYSQTTPPIVQSYAQPSLQYIQGQQIFTAHPQGVVVQPAAAVTTIVAPGQPQPLQPSEMVVTNNLLDLPPPSPPKPKTIVLPPNWKTARDPEGKIYYYHVITRQTQWDPPTWESPGDDASLEHEAEMDLGTPTYDENPMKASKKPKTAEADTSSELAKKSKEVFRKEMSQFIVQCLNPYRKPDCKVGRITTTEDFKHLAHKLTHGVMNKELKYCKNPEDLECNENVKHKTKEYIKKYMQKFGAVYKPKEDTELE
B4: truncated form of human WT SETD2, FLAG-tagged (tSETD2-FLAG, aa1418–2564), Q9BYW2 F2505A (protein)
chain: DGELQDRKKVRVEVEQGETSVPPGSALVGPSCVMDDFRDPQRWKECAKQGKMPCYFDLIEENVYLTERKKNKSHRDIKRMQCECTPLSKDERAQGEIACGEDCLNRLLMIECSSRCPNGDYCSNRRFQRKQHADVEVILTEKKGWGLRAAKDLPSNTFVLEYCGEVLDHKEFKARVKEYARNKNIHYYFMALKNDEIIDATQKGNCSRFMNHSCEPNCETQKWTVNGQLRVGFFTTKLVPSGSELTFDYQFQRYGKEAQKCFCGSANCRGYLGGENRVSIRAAGGKMKKERSRKKDSVDGELEALMENGEGLSDKNQVLSLSRLMVRIETLEQKLTCLELIQNTHSQSCLKSFLERHGLSLLWIWMAELGDGRESNQKLQEEIIKTLEHLPIPTKNMLEESKVLPIIQRWSQTKTAVPPLSEGDGYSSENTSRAHTPLNTPDPSTKLSTEADTDTPKKLMFRRLKIISENSMDSAISDATSELEGKDGKEDLDQLENVPVEEEEELQSQQLLPQQLPECKVDSETNIEASKLPTSEPEADAEIEPKESNGTKLEEPINEETPSQDEEEGVSDVESERSQEQPDKTVDISDLATKLLDSWKDLKEVYRIPKKSQTEKENTTTERGRDAVGFRDQTPAPKTPNRSRERDPDKQTQNKEKRKRRSSLSPPSSAYERGTKRPDDRYDTPTSKKKVRIKDRNKLSTEERRKLFEQEVAQREAQKQQQQMQNLGMTSPLPYDSLGYNAPHHPFAGYPPGYPMQAYVDPSNPNAGKVLLPTPSMDPVCSPAPYDHAQPLVGHSTEPLSAPPPVPVVPHVAAPVEVSSSQYVAQSDGVVHQDSSVAVLPVPAPGPVQGQNYSVWDSNQQSVSVQQQYSPAQSQATIYYQGQTCPTVYGVTSPYSQTTPPIVQSYAQPSLQYIQGQQIFTAHPQGVVVQPAAAVTTIVAPGQPQPLQPSEMVVTNNLLDLPPPSPPKPKTIVLPPNWKTARDPEGKIYYYHVITRQTQWDPPTWESPGDDASLEHEAEMDLGTPTYDENPMKASKKPKTAEADTSSELAKKSKEVFRKEMSQFIVQCLNPYRKPDCKVGRITTTEDAKHLARKLTHGVMNKELKYCKNPEDLECNENVKHKTKEYIKKYMQKFGAVYKPKEDTELE

The test deals with RNA polymerase II, P24928. The test is described as follows: coimmunoprecipitation (anti-FLAG beads, Western blot quantification). As to conditions: chain shown with the change; tSETD2-FLAG on anti-Flag beads incubated with HEK293 cell lysate; parent: est. 82; read off a plot. (In general: Immunoblotting shows a protein as a band on a membrane.)
Consider B1, for which the response (% of input bound) is 17.
Regarding B2, the response (% of input bound) came to 76.
Under B3 stands 84.
Under B4 stands 12.
